Data published in patent US20110110942A1.

Target: p75 (Homo sapiens (Human)) (UniProt P08138)
Test: ELISA, format not described

Chain of UniProt P08138 (P08138 29-250 limits assumed): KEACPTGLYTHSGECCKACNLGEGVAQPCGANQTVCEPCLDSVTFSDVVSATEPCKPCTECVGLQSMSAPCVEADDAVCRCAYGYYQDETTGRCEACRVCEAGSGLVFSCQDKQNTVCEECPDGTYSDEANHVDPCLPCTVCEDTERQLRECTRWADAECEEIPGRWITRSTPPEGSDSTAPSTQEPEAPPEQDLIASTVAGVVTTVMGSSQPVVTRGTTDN

## Amyloid Precursor Protein (from UniProt P05067 18-286) (ligand)
  EC50: 300 nM
